From the DeepSol protein solubility set come the findings set out here.

The data set in a line: soluble on expression in E. coli; label from the status in PepcDB or PDB records.
For the sequence “MESKKRSSDKKSTEVDSMSDKESLYVSASDQPPAEITIKLEKDTKRKITIISEVENPKRARRGSADLRRQAIVNSAIRSAQSTASSRSRSRSRSRSRSTMNQQIRLARTRSASGGKLRRSRSARRRSPSSSASRSRSRSTSRTRAQSIPIRYRDRPEKIEKPIQPLPPLRLPTHLTKKSSVGSKKLPPPDCINLPSPLFILTEQQVIGASEKKTVQFVTKVLLTSKKLSLDDRKLLFAEMVEAEYVGTSRSSTDLNKSSDDEPEEEFATKIHYSSKGIYIHTVQNVRKIRSGKTSSITEEKSYANICKTKISGDHGKSTEGFLNVQCSETISVVDQKYIRSEEFKIGLTGVNVSGNVSINSSKTTFDPTKTITFSEDLMFDSKNIGITIRHSSVAEMKEMWHHEMGSFGEETSEYRELKFFFDEKKKDDNKTVGKSVVSILQGTKPSAPPASTSSSSKNSSSINSPKTPNISGSSRRSRSRAKRHKALQKRDSKTNRTPSPDRQSCKKDARPDQDPIKLSEIKVSEHVDSTGNETFYQSFPKATSTPKSPASSLNSSVLESKVKNSMQKTPDEGPSRRGAMSIRERSVSRNGDNEIDLDKSLSLKKPSASKNLASLLEKKEEARKTDVTSSMISSKPPTSPGTSVYMYNTGSANSTFMSAKDLHKERVAASTGPRSASKSPKGTLRVKETKVIREVRQEDGKPPEISEKKEETVKEEKVNLSERLRARSRASSPATPTLKRTFNQTDESNIVTLSAVKETHQTLEMTPIKVNSETVPSTSYGQRAFPESVQLDMLIDKKRLVLNVNFMLLAEKHPEVEILGFTFKGQKLWEKSSEWNLTSANTTSHTKTIARQASNILGDEEKKDEEQK”, the “soluble on expression in E. coli” value was “not soluble”.
On to “MLSNDILRSVRYILKANNTDLARILALGNVDATPEQIAIWLRKEEEEGFQRCPDIVLSSFLNGLIYEKRGKDEAAPALTAERRINNNIVLKKLRIAFSLKTDDILAILTGQLFRVSMPEITAMMRAPDHKNFRECGDQFMRYFLRGLAAREHAAK”, for which the “soluble on expression in E. coli” value is recorded as “not soluble”.
Take “MTTSQMIADFTTLAIQAGGWMELDRLYLQNRLLSMIGEQELGEVDIRPVATPAADLAEQLCQVASANQLVKTEQQKEQFMVQLMDLLTPPPSVVNAFFAQHYAKEPQEATEYFYQLCQKNGTVIEQEEPVVFSTVYGDFLANKVHSEASKATLSAQSYPRCEWCMATEGYQGSQQFPATTNHRVIRMNLDGESWGFSFVKQAQYQQQGVIAFEKHQSAKRSIKTFQQLLKIVEVFPHYFAGIDADFEQNEHVYYQTGLQQFPLAEASISEYVELANYPLINAGMVNWPVETFRLEGPNASEVAQAANDIFEQWQMLKLPTDEIQIVARRKELLYVMDLIFSRPQAKPSLTLAEVQGLTTWNNQKTQALETVASAYQQRLKEASAFAETSEGKAAFLAMVAPVTH”: the “soluble on expression in E. coli” value is reported as “not soluble”.
To “GKPSWLGGGSTQPAQTIPWGIERVKAPSVWSITDGSVSVIQVAVLDTGVDYDHPDLAANIAWCVSTLRGKVSTKLRDCADQNGHGTHVIGTIAALNNDIGVVGVAPGVQIYSVRVLDARGSGSYSDIAIGIEQAILGPDGVADKDGDGIIAGDPDDDAAEVISMSLGGPADDSYLYDMIIQAYNAGIVIVAASGNEGAPSPSYPAAYPEVIAVGAIDSNDNIASFSNRQPEVSAPGVDILSTYPDDSYETLMGTAMATPHVSGVVALIQAAYYQKYGKILPVGTFDDISKNTVRGILHITADDLGPTGWDADYGYGVVRAALAVQAALG” belongs “soluble”; to “MNDGDETLTAGAQGRQFGPLGTALVIIPTYNEAENIKSIVGRVRASVPEAHVLVADDNSPDGTGKLADELAVEDDQVHVLHRKGKEGLGAAYLAGFRWGLDNGYGVLVEMDADGSHRPEELPRLLTALKGADLVLGSRWVPGGRVVNWPKSREFISRGGSLYSRLALDLPQRDITGGYRAFRRETLEGLGLDEVASQGYCFQVDLARRTVKAGYHVVEVPITFVEREFGDSKMSRDILVEALWRVTTWGVGERVGRITGRGPKSSLEHHHHHH”, “not soluble”.
“MGSDKIHHHHHHMNGFSQLEGLRGHPSVVRVIGHRGARGVMPENTLEGFAFTLAAGVRALEFDVVMTADGVPVVTHNHHLANAMTRDGQGHWLTGAERQVAEMTYAEIRALDVGGLDGRTVYGRRFPDQAFLTGIHVPRLGELLDLCAGYGDQAPYLLLELKSDPALMHDHAARAEMVAAVLADVRRYRMEPRTVMHSFDWALLGECRRQAPDLPTSYLSQLPENADDPGEDSAKPVGPDYDRMTESLPQAVASAGGQLWCPYFLDVTPELVAEAHDLGLIVLTWTVNEPEDIRRMATTGVDGIVTDYPGRTQRILIDMGLSWT”: the “soluble on expression in E. coli” value is listed as “not soluble”.
To “MGSDKIHHHHHHVKIILRKIRTLVTHPGFRANPIAVLGRCAALLGRVALGRPFVFSLTPAGERLRVDANLRYTTVTTFVMRDHLEPELHYLAHLLAPGDTFIDIGANVGVYSLRAATLVGAAGRVIAVEPGRDALTALRANLALNPGRTITVVAAALSDHIGTATLYHVGNGYDPQAFSLLSDETAKDAETVPLTTLDAVCADLAIDRLDCLKMDAEGVEPMVLAGGRATLERFHPAVILEMNTAILERRGSPTDQAWTFLAGLGYGFHRILGGRPVRLTAPPDDFCNVIATHPANEKIG” belongs “not soluble”; to “MSLNGSMVYGDFIRNQEVRKRITKEELGIEEDEIPERVVVTPMPFNTQFPKNFEDTLTNLGIKVNRLKVEDQILRQFGGNLLLEKDGNRGFIAFIGRGLIDFTERIRILATVSRIKDILFIGTAGSLSNEILIGDLNIPKYAIPFENVSDFYADPTIAIPQADEKLLNEVYEYAEETGVKTHSTLHATLLFPYSETTEFLNYLLNIGVSTIDMEVSAFYKMSRFYGKRAVAVLRISDMPLIELHKQEELIKARREIAVNAVFRITLRFLKLEGHHHHHH”, “soluble”.
To “MKLKYSGLTASGNTHPKFTRGDIYRDQYGGMVTIKGVAERRITYRREGYEYDCVMPVYQFRRDFTLVQAAPRSKPTSREKARANIQEIKKMLNVFRGKK” belongs “not soluble”; to “MSLQVEFRECDPGNLWIWFEFAEPPVPAELEYLKEVLESWYVLGKLGGFNAERLVAQEAEVDLSYLEYPSDSAPLTSLMHNMGSLEEKGNWARCWFDLGTADALALDVLINALRTLSLEYINLSRVIIGGQNEDWPTPDPEETDVYDDLNGYLRDHWGEEGEGHHHHHH”, “soluble”; to “MENLYKELGDQSLHKDFCQTVASTFSCSVNRNGKSSITWKQVQIWFQEKLKHQSQPKSKTLPSPPLQIHDLSNPSSYASNASNATFVGNSTFVQTRKGKASDLADLAFEAKSARDYAWYDVSSFLTYRVLRTGELEVRVRFSGFDNRHDEWVNVKTSVRERSIPVEPSECGRVNVGDLLLCFQEREDQALYCDGHVLNIKRGIHDHARCNCVFLVRYELDNTEESLGLERICRRPEE”, “not soluble”.
To “MYTLIIPAAGQGKRMGAGKNKLFLLINEVPIIVHTLRAFEKDKACKNIIMAINEEERPYFEELMQKYPVEKPVQFIQGGAERQDSVYNAIQHTTDVEYVLVHDGARPFVTNKVIQDVLTAAEKYGASICAVPVKDTVKKVEQGVVVETVERSQLKAVQTPQGFSVSLLLEAHRSAKQSCFLGTDDASLVERIGKQVGVVEGSYYNIKVTTPEDLLIAESFLHVQKK” belongs “not soluble”.
Take “MRTQWPSPAKLNLFLYITGQRADGYHTLQTLFQFLDYGDTISIELRDDGDIRLLTPVEGVEHEDNLIVRAARLLMKTAADSGRLPTGSGANISIDKRLPMGGGLGGGSSNAATVLVALNHLWQCGLSMDELAEMGLTLGADVPVFVRGHAAFAEGVGEILTPVDPPEKWYLVAHPGVSIPTPVIFKDPELPRNTPKRSIETLLKCEFSNDCEVIARKRFREVDAVLSWLLEYAPSRLTGTGACVFAEFDTESEARQVLEQAPEWLNGFVAKGVNLSPLHRAML”: the “soluble on expression in E. coli” value was “soluble”.
To “MSLAKYKRVVLKLSGEALAGEQGYGIDPEVIQSIASQIKEIVELDVEVAVVVGGGNIWRGMAGSAKGMDRATADYMGMLATVMNSLALQDSLENLDVQSRVQTSIEMRQVAEPYIRRRAIRHLEKKRVVIFAAGTGNPYFSTDTTAALRAAEIEAEVILMAKNKVDGVYNAEPSVDVNAKKYTSISYLDVLKEGLAVMDSTASSLCMDNNIPLIVFSIMEEGNIKKAVLGEEIGTVVRGSNEGHHHHHH” belongs “soluble”.
With “MSDSKCDSQFYSVQVADSTFTVLKRYQQLKPIGSGAQGIVCAAFDTVLGINVAVKKLSRPFQNQTHAKRAYRELVLLKCVNHKNIISLLNVFTPQKTLEEFQDVYLVMELMDANLCQVIHMELDHERMSYLLYQMLCGIKHLHSAGIIHRDLKPSNIVVKSDCTLKILDFGLARTACTNFMMTPYVVTRYYRAPEVILGMGYKENVDIWSVGCIMGELVKGCVIFQGTDHIDQWNKVIEQLGTPSAEFMKKLQPTVRNYVENRPKYPGIKFEELFPDWIFPSESERDKIKTSQARDLLSKMLVIDPDKRISVDEALRHPYITVWYDPAEAEAPPPQIYDAQLEEREHAIEEWKELIYKEVMDWEERSKNGVVKDQPSDAAVSSNATPSQSSSINDISSMSTEQTLASDTDSSLDASTGPLEGCR” the entry was “soluble”; with “MAHHHHHHMKALKLFTNRICPFCQRVLITAKEKRVTLEEVEVPLGDDMPQWYKELNPRETVPMLQVDGKKCMIESDLISRYIDRISSPENALIGSSPYQRHRVEFFLSEIGDLVKAYFGLVRDPFNEEKRKSVDHNTAYIEGIIAEHQGDGPYFLDDTFSMAEVMVVPFLACFRPVLSYYCGYDIFHEAPRLKKMYVTSMQRTTVKETISKPEEYIIGFKSKVPKSHVTWSLAPGYVLFVNKYSPFSDRPRLACALKNIDLPMLEIDLKQLPSWFRWFNQRETVPTLLTPRGTYVHESQLIVHYLDDGFPEHGPALLPKDADGSYHVRFVESNVDYFMDAMYSLIKDPKNTNAKEEFDWAAGELEKLLAEHQFGEGPFFGGATMNAADVSLLPMLVHLKACTPDLTEGQDLLANYKLLAAAAEAGLTSEAGKKVFLSLSEYSSIYKTFLRPSS”, “soluble”; with “MGSDKIHHHHHHMLTMIQQYHIKHLNFHKGKSLRSIAEETGHDFRTVKKYAEQTDFNEIRKPKRGRPSKLDPVKPIIDAWLKEDLNRPVKQRHTARRIYDRLCDEHQDIFNACERTVRTYVSARKKELYGEEEGYLPLEHPAGEAQVDFGEIVMIEQGQKVKGYELILSLPYSNAGYPQIFRGQNQECLLTGLKDIF”, “not soluble”.
With “NLYFQGHMVLKLLLELGAERYAEQFAAKCHELGMVMKESAGPGRVPVPVTLQPSMISRGEFGTLCCMQPLWNEAVDNTARNFTFLRDALQETAASDVNFTGKLLNMLQEVYLSGGPFQQLMLGIFRTDYMREGVYDKMLSTTASRWKNVEINTISCSFAGLSPLITEFHQHIAAYLQVLQKARGKEDDDGVENMSWIWGKGNCRLERSVSGDVVPKAIADAVRAWVEQQKFASLRASWEQFQQNEVGSGEIHQLGVLDTAPVVLVVVQENERNTADQYALLMRVLEEHRIRFIFRTLQELHLSLKLHSISPEQPPLAVVDGHYPIAVAYFRSTYVPEDFPTDATWAARLSLERSSAIKCPSIPYHLLTFKKLQQLLCDVDRVLVPVAFCGDSDKAGLLQRHFVPQYSLNPKEVGEEAVEKVIHDVLQRPDQFVLKPQLEGGGNLLSGETMVKALKATKEGDPVTYSKVRCEYVVMSRIQFHVSTGSLLARGDVVQLERNMCSEVGIFGVILSAAKGSSVGTNGSSVLFNTFAGYTVRSKPADADDGGVMAGVAALDSLAVVP” the entry was “soluble”; with “WTGEDSAEPNSDSAEWIRDMYAKVTEIWQEVMQRRDDDGTLHAACQVQPSATLDAAQPRVTGVVLFRQLAPRAKLDAFFALEGFPTEPNSSSRAIHVHQFGDLSQGCESTGPHYNPLAVPHPQHPGDFGNFAVRDGSLWRYRAGLAASLAGPHSIVGRAVVVHAGEDDLGRGGNQASVENGNAGRRLACCVVGVCGPGLWERQAREHSERKKRRRESECKAA”, “soluble”.
